Source: patent publication US20190002588A1 (NATIONAL UNIVERSITY CORPORATION CHIBA UNIVERSITY, published 2019)

T1: human Myl9-His (human, UniProt P24844 2-172, limits assumed)
T1 construct: Made in E. coli; the GST tag was cleaved with PreScission Protease
T1 sequence: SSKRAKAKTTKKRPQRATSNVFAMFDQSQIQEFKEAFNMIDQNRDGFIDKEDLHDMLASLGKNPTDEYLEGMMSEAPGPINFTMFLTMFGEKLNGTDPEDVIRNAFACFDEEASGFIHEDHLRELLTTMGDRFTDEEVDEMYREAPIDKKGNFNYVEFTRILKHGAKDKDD

T2: human Myl12a-His (human, UniProt P19105 1-171)
T2 construct: Made in E. coli; GST tag cleaved with PreScission Protease; DTT-treated monomer
T2 sequence: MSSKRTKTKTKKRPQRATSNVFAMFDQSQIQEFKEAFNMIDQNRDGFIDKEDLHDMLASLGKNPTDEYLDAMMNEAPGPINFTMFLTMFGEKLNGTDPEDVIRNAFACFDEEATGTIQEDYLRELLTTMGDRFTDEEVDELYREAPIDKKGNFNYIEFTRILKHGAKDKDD

T3: human Myl12b-His (human, UniProt O14950 1-172)
T3 construct: Made in E. coli; GST tag cleaved with PreScission Protease; DTT-treated monomer
T3 sequence: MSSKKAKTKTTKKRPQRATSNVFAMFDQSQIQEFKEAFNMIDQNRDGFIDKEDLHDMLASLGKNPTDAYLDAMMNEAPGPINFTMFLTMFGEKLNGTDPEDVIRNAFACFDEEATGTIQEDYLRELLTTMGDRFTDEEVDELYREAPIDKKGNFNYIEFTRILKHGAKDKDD

T4: mouse Myl9-His (mouse, UniProt Q9CQ19 2-172, limits assumed)
T4 construct: Made in E. coli; the GST tag was cleaved with PreScission Protease and leftover vector residues are not described
T4 sequence: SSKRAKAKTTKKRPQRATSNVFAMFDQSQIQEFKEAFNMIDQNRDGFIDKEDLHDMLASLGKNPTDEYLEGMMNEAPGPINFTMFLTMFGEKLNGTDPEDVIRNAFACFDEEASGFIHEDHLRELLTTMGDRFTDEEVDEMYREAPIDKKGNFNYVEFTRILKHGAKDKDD

T5: mouse Myl12a-His (mouse, UniProt Q3THE2 1-172 at identity 1.00), limits assumed)
T5 construct: Made in E. coli; GST tag cleaved with PreScission Protease; DTT-treated monomer
T5 chain: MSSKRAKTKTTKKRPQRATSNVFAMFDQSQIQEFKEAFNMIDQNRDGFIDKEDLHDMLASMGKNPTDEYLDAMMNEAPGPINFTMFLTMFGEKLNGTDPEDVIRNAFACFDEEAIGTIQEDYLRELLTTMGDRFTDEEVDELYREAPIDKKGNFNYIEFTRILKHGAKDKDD

T6: mouse Myl12b-His (mouse, UniProt Q3THE2 1-172, limits assumed)
T6 construct: Made in E. coli; GST tag cleaved with PreScission Protease; DTT-treated monomer
T6 sequence: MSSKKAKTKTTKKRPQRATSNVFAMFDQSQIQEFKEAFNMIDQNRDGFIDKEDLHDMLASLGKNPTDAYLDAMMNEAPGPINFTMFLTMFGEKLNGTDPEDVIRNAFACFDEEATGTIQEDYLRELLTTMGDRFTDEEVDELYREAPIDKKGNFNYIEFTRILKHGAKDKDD

T7: mouse/human Myl9 peptide-BSA (mouse and human (common sequence), added C-terminal Cys coupled to maleimide-activated BSA)
T7 construct: Synthetic peptide conjugated to bovine serum albumin
T7 peptide: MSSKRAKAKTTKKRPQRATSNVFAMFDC


What was measured:
[1] = molecular target: T1, human Myl9-His; test: ELISA, human Myl9-His coated, anti-Flag-HRP
Experimental: (§1) Evaluation of binding between human Myl9, Myl12a and Myl12b and human CD69 extracellular region protein was carried out by ELISA. Human Myl3-His, human Myl9-His, human Myl12a-His and human Myl12b-His prepared in Example 5 were coated onto the wells of a 96-well plate (Nunc), respectively. After an overnight incubation at 4° C., the wells were blocked at room temperature for one hour with 1× Block Ace (DS Pharma Biomedical Co., Ltd.). After washing three times with 0.02% Tween 20/PBS, six serial dilutions by three folds of 3× Flag-human CD69 EC protein were made from a concentration of 10 μg/mL by 50 mM NaOAc (pH 5.5)/150 mM NaCl/0.02% Tween 20 and added to the wells. After incubation at room temperature for one and half hour and washing three times with 50 mM NaOAc (pH 5.5)/150 mM NaCl/0.02% Tween 20, horseradish peroxidase-labeled anti-Flag (M2) antibody (SIGMA) was added, and this was incubated at room temperature for one hour. After washing 5 times, TMBZ (3,3′,5,5′-tetramethylbenzidine) solution was added to the wells, and this was incubated for 5-20 minutes at room temperature. An equal amount of reaction quenching solution (2N H₂SO₄) was added to the wells, and absorbance at 450 nm was read with a microplate reader (Thermo Scientific).

[2] = molecular target: T2, human Myl12a-His; test: ELISA, human Myl12a-His coated, anti-Flag-HRP
Experimental: as §1

[3] = molecular target: T3, human Myl12b-His; test: ELISA, human Myl12b-His coated, anti-Flag-HRP
Experimental: as §1

[4] = molecular target: T8, human Myl3-His (human, UniProt P08590 2-195, limits assumed); test: ELISA, human Myl3-His coated, pH 5.5 buffer, anti-Flag-HRP
T8 construct: Made in E. coli; the GST tag was cleaved with PreScission Protease
T8 sequence (P08590 2-195 limits assumed): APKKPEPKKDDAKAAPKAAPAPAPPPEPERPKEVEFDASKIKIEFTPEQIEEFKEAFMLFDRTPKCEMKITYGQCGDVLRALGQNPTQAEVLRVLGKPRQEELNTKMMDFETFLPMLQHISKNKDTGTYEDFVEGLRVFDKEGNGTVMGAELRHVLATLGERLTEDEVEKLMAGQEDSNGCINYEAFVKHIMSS
Experimental: as §1

[5] = molecular target: T8, human Myl3-His; test: ELISA, human Myl3-His coated, anti-mouse IgG-HRP
Experimental: (§2) The binding ability against mouse/human Myl9 was evaluated following the steps below by ELISA. Mouse Myl3-His, mouse Myl9-His, human Myl3-His, and human Myl9-His were coated onto the wells of a 96-well plate (Nunc). After an overnight incubation at 4° C., the wells were blocked at room temperature for one hour with 1× Block Ace (DS Pharma Biomedical Co., Ltd.). After washing three times with 0.02% Tween 20/PBS, ten serial dilutions by four folds of Antibody A were made from a concentration of 10 μg/mL and added to the wells. After incubation at room temperature for one hour and washing three times, horseradish peroxidase-labeled anti-mouse IgG antibody (Jackson ImmunoResearch Laboratories) was added, and this was incubated at […] temperature for one hour. After washing 5 times, TMBZ (3,3′,5,5′-tetramethylbenzidine) solution was added to the wells, and this was incubated for 5-20 minutes at room temperature. An equal amount of reaction quenching solution (2N H₂SO₄) was added to the wells, and absorbance at 450 nm was read with a microplate reader (PerkinElmer).

[6] = molecular target: T1, human Myl9-His; test: ELISA, human Myl9-His coated, anti-mouse IgG-HRP
Experimental: as §2

[7] = molecular target: T9, mouse Myl3-His (mouse, UniProt P09542 2-204, limits assumed); test: ELISA, mouse Myl3-His coated, anti-mouse IgG-HRP
T9 construct: Made in E. coli; the GST tag was cleaved with PreScission Protease
T9 sequence (P09542 2-204 limits assumed): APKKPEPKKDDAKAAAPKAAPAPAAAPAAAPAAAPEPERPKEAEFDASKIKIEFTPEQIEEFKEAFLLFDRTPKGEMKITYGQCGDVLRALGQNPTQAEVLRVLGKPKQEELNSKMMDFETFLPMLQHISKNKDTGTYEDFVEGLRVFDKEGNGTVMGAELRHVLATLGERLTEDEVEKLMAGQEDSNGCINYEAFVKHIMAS
Experimental: as §2

[8] = molecular target: T4, mouse Myl9-His; test: ELISA, mouse Myl9-His coated, anti-mouse IgG-HRP
Experimental: as §2

[9] = molecular target: T2, human Myl12a-His; test: ELISA, human Myl12a-His coated, anti-mouse IgG-HRP
Experimental: (§3) The binding ability of Antibody A against mouse/human Myl12a and Myl12b was evaluated following the steps below by ELISA. Mouse Myl3-His, mouse Myl9-His, mouse Myl12a-His, mouse Myl12b-His, human Myl3-His, human Myl9-His, human Myl12a-His, and human Myl12b-His were coated onto the wells of a 96-well plate (Nunc). After an overnight incubation at 4° C., the wells were blocked at room temperature for one hour with 1× Block Ace (DS Pharma Biomedical Co., Ltd.). After washing three times with 0.02% Tween 20/PBS, eleven serial dilutions by four folds of Antibody A were made from a concentration of 10 μg/mL and added to the wells. After incubation at room temperature for one hour and washing three times, horseradish peroxidase-labeled anti-mouse IgG antibody (Jackson ImmunoResearch Laboratories) was added, and this was incubated at room temperature for one hour. After washing 5 times, TMBZ (3,3′,5,5′-tetramethylbenzidine) solution was added to the wells, and this was incubated for 5-20 minutes at room temperature. An equal amount of reaction quenching solution (2N H₂SO₄) was added to the wells, and absorbance at […] was read with a microplate reader (Thermo Scientific).

[10] = molecular target: T3, human Myl12b-His; test: ELISA, human Myl12b-His coated, anti-mouse IgG-HRP
Experimental: as §3

[11] = molecular target: T5, mouse Myl12a-His; test: ELISA, mouse Myl12a-His coated, anti-mouse IgG-HRP
Experimental: as §3

[12] = molecular target: T6, mouse Myl12b-His; test: ELISA, mouse Myl12b-His coated, anti-mouse IgG-HRP
Experimental: as §3

[13] = molecular target: T7, mouse/human Myl9 peptide-BSA; test: ELISA, mouse/human Myl9 peptide-BSA coated, hybridoma supernatant
Experimental: ELISA employing mouse/human Myl9 peptide-BSA was carried out according to the following steps. Mouse/human Myl9 peptide-BSA was coated onto the wells of a 96-well plate (Num). After an overnight incubation at 4° C., the wells were blocked at room temperature for one hour with 1× Block Ace (DS Pharma Biomedical Co., Ltd.). After washing three times with 0.02% Tween 20/PBS, the culture supernatant of said fused cells was added to the wells. After incubation at room temperature for one hour and washing three times, horseradish peroxidase-labeled anti-mouse IgG antibody (Jackson ImmunoResearch Laboratories) was added, and this was incubated at room temperature for one hour. After washing 5 times, TMBZ (3,3′,5,5′-tetramethylbenzidine) solution was added to the wells, and this was incubated for 5-20 minutes at room temperature. An equal amount of reaction quenching solution (2N H₂SO₄) was added to the wells, and absorbance at 450 nm was read with a microplate reader (PerkinElmer).

binding result [1]	binding result [2]	binding result [3]	binding result [4]	binding result [5]	binding result [6]	binding result [7]	binding result [8]	binding result [9]	binding result [10]	binding result [11]	binding result [12]	binding result [13]	Binder
binds	binds	binds	no binding (tested: 10 µg/mL)	–	–	–	–	–	–	–	–	–	3× Flag-human CD69 EC protein (receptor, not shown: small tags and cut ends, Made in Expi293F cells and purified on Anti-Flag M2 gel; The dimerized protein was collected by Superdex200 or Superdex75; also called human CD69 extracellular region protein; extracellular region of human CD69) GQYNCPGQYTFSMPSDSHVSSCSEDWVGYQRKCYFISTVKRSWTSAQNACSEHGATLAVIDSEKDMNFLKRYAGREEHWVGLKKEPGHPWKWSNGKEFNNWFNVTGSDKCVFLKNTEVSSMECEKNLYWICNKPYK
–	–	–	–	no binding (tested: 10 µg/mL)	binds	no binding (tested: 10 µg/mL)	binds	binds	binds	binds	binds	binds	mouse anti-mouse/human Myl9 monoclonal antibody (Antibody A) (antibody, V domains shown, Hybridoma antibody purified with Protein A; isotype printed as 'IgG2e, kappa'; also called mAb A; anti-mouse/human Myl9 antibody) VH: QVQLQQSGAEVVRPGASVTLSCKASGYTFTDYEMHWVKQTPVHGLEWIGAIDPETGGTAYNQKFKGKAILTADKSSNTAYMELRSLTSEDSAVYYCTDYDYDGFAYWGQGTLVTVSA VL: DVVMTQTPLSLPVSLGDQASISCRSSQSLVHSNGNTYLHWYLQKPGRSPKLLISKVSNRFSGVPDRFSGSGSGTDFTLKITRVEAEDLGVYFCSQNTHVPPLTFGAGTKLELK
